US20230087600A1 (Bristol-Myers Squibb, published 2023)

T1: human IL-10 receptor (IL-10R) on T cells and B cells of human whole blood (human, UniProt Q13651 22-578; Q08334 20-325)
T1 sequence (looked up) 1: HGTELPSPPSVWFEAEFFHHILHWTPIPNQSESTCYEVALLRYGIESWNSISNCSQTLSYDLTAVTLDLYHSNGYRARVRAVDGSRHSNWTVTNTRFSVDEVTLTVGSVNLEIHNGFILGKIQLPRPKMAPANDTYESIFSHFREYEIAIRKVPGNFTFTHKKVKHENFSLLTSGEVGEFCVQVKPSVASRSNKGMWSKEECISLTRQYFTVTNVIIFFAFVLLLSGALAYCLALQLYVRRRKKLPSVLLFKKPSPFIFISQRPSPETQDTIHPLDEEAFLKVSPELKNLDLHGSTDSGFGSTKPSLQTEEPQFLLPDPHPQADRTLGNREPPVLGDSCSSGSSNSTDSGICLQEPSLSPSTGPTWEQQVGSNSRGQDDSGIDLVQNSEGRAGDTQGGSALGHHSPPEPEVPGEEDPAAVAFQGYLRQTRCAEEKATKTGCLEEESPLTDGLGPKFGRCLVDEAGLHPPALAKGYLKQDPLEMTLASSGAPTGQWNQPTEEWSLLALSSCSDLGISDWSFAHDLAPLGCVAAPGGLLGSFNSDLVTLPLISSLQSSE
T1 sequence (looked up) 2: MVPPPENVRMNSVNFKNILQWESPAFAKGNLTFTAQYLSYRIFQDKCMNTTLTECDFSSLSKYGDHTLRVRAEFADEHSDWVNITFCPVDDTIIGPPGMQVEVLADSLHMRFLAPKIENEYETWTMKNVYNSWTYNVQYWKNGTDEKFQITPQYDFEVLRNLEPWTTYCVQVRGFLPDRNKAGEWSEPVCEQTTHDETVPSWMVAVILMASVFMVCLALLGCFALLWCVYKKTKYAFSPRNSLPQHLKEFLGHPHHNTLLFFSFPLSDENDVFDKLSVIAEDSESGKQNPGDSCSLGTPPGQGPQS

B1: Fc-IL-10 (human IgG1.3f Fc domain - GGGGSSGGGGSGGGGSGGGGS linker - wildtype human IL-10) (Fc fusion)
chain: DKTHTCPPCPAPEAEGAPSVFLFPPKPKDTLMISRTPEVTCVVVDVSHEDPEVKFNWYVDGVEVHNAKTKPREEQYNSTYRVVSVLTVLHQDWLNGKEYKCKVSNKALPAPIEKTISKAKGQPREPQVYTLPPSREEMTKNQVSLTCLVKGFYPSDIAVEWESNGQPENNYKTTPPVLDSDGSFFLYSKLTVDKSRWQQGNVFSCSVMHEALHNHYTQKSLSLSPGGGGGSSGGGGSGGGGSGGGGSSPGQGTQSENSCTHFPGNLPNMLRDLRDAFSRVKTFFQMKDQLDNLLLKESLLEDFKGYLGCQALSEMIQFYLEEVMPQAENQDPDIKAHVNSLGENLKTLRLRLRRCHRFLPCENKSKAVEQVKNAFNKLQEKGIYKAMSEFDIFINYIEAYMTMKIRN
B2: wildtype human IL-10 (ligand)
chain: SPGQGTQSENSCTHFPGNLPNMLRDLRDAFSRVKTFFQMKDQLDNLLLKESLLEDFKGYLGCQALSEMIQFYLEEVMPQAENQDPDIKAHVNSLGENLKTLRLRLRRCHRFLPCENKSKAVEQVKNAFNKLQEKGIYKAMSEFDIFINYIEAYMTMKIRN

Target: T1, human IL-10 receptor (IL-10R) on T …
Assay: cell-based or functional assay

Binder	STAT3 phosphorylation (pY705), flow cytometry, CD3+ T cells in human whole blood, EC50	STAT3 phosphorylation (pY705), flow cytometry, CD19+ B cells in human whole blood, EC50
B1	222 pM	352 pM
B2	47.7 pM	116 pM
